B1: GAL4 activation domain-rice HrBP1p (R6p) fusion (receptor)
chain: VAALKVKLLSAVSGLNRGLAGSQEDLDRADAAARELEAAAGGGPVDLERDVDKLQGRWRLVYSSAFSSRTLGGSRPGPPTGRLLPITLGQVFQRIDVVSKDFDNIVDVELGAPWPLPPVELTATLAHKFEIIGTSSIKITFDKTTVKTKGNLSQLPPLEVPRIPDNLRPPSNTGSGEFEVTYLDGDTRITRGDRGELRVFVIS
notes: Partial cDNA clone from a yeast two-hybrid screen with harpin as bait; not full length
B2: GAL4 activation domain alone (empty prey vector pGAD GH) (other)
chain: ANFNQSGNIADSSLSFTFTNSSNGPNLITTQTNSQALSQPIASSNVHDNFMNNEITASKIDDGNNSKPLSPGWTDQTAYNAFGITTGMFNTTTMDDVYNYLFDDEDTPPNPKKE
notes: Control
B3: LexA alone (empty bait vector pVJL11) (other)
chain: MKALTARQQEVFDLIRDHISQTGMPPTRAEIAQRLGFRSPNAAEEHLKALARKGVIEIVSGASRGIRLLQEEEEGLPLVGRVAAGEPLLAQQHIEGHYQVDPSLFKPNADFLLRVSGMSMKDIGIMDGDLLAVHKTQDVRNGQVVVARIDDEVTVKRLKKQGNKVELLPENSEFKPIVVDLRQQSFTIEGLAVGVIRNGDWL
notes: Control

Experiments:
[1] = target: T1, LexA-harpin fusion (HrpN of Erwinia amylovora in bait vector pVJL11) (Erwinia amylovora, UniProt Q01099 1-403); assay: yeast two-hybrid, harpin as bait
T1 construct: range 1-403; also called HrpN-pVJL11; lexA-harpin fusion protein; not shown: prokaryotic LexA protein (DNA-BD encoded in bait vector pVJL11)
T1 sequence: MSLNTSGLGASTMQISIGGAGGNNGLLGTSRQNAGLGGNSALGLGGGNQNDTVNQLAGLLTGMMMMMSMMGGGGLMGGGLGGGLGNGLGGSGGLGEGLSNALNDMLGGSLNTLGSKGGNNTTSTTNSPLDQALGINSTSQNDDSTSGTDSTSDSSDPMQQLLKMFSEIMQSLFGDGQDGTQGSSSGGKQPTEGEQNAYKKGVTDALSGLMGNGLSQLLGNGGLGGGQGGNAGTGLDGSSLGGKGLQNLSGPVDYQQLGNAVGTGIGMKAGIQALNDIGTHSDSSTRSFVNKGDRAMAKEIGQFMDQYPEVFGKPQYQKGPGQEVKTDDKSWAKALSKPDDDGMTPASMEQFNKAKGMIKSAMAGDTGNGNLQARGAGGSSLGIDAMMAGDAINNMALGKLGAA

[2] = target: T2, LexA fused to harpin 137-180 amino acids (Erwinia amylovora, UniProt Q01099 137-180); assay: yeast two-hybrid, harpin fragment as bait
T2 construct: also called harpin fragment that contains the second HR domain; not shown: prokaryotic LexA protein (bait vector)
T2 chain (looked up): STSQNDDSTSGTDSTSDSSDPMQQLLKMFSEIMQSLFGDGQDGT

[3] = target: T3, LexA fused to harpin 210-403 amino acids (Erwinia amylovora, UniProt Q01099 210-403); assay: yeast two-hybrid, lacZ and HIS3 reporters
T3 construct: range 210-403; not shown: prokaryotic LexA protein (bait vector)
T3 sequence: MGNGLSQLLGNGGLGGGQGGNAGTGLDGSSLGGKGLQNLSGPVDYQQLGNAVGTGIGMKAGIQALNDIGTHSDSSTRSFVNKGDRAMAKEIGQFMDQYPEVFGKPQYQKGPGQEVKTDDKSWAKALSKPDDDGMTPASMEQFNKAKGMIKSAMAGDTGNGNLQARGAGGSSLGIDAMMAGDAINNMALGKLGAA

[4] = target: B3; assay: yeast two-hybrid, lacZ and HIS3 reporters
[5] = target: T1, LexA-harpin fusion (HrpN of Erwinia …); assay: yeast two-hybrid, lacZ and HIS3 reporters
[6] = target: T4, LexA-AtHrBP1p fusion (AtHrBP1 in bait vector pVJL11) (Arabidopsis thaliana, UniProt Q9LW57 1-284); assay: yeast two-hybrid, lacZ and HIS3 reporters
T4 construct: Yeast two-hybrid bait, opposite orientation; also called AtHrBP1-pVJL11; AtHrBP1p fused with the DNA-BD; not shown: prokaryotic LexA protein (DNA-BD encoded in bait vector pVJL11)
T4 sequence: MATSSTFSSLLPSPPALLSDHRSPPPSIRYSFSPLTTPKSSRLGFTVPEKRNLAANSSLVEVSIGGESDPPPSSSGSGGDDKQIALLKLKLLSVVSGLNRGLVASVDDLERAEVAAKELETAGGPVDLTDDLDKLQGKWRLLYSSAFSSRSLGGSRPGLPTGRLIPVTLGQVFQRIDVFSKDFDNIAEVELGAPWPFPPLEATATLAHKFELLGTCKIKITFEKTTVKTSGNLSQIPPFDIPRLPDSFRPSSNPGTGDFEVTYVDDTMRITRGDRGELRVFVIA

[7] = target: T5, GAL4 activation domain-harpin fusion (hrpN in prey vector pGAD GH) (yeast; Erwinia amylovora, UniProt Q01099 1-403); assay: yeast two-hybrid, lacZ and HIS3 reporters
T5 construct: range 1-403; also called hrpN-pGAD GH
T5 sequence: T1 sequence

[8] = target: T6, GAL4 activation domain-AtHrBP1p fusion (longest 1 kb cDNA insert in pGAD 10) (yeast; Arabidopsis thaliana, UniProt Q9LW57 1-284); assay: yeast two-hybrid, lacZ and HIS3 reporters
T6 construct: Yeast two-hybrid prey; also called AtHrBP1-AD fusion prey
T6 sequence: T4 sequence

B1
binding result [1]: binds | binding result [2]: binds | binding result [3]: no binding | binding result [4]: no binding

B2
binding result [5]: no binding | binding result [6]: no binding

B3
binding result [7]: no binding | binding result [8]: no binding
